Read-outs that look alike come from different tables or passages of the source.

For test [1], the target named is human α-thrombin (recombinant) (human), P00734. The experiment in a line: thrombin amidolytic assay with S2238, Morrison tight-binding fit.
For test [2] the target is unchanged. The test is described as follows: cell-based or functional assay.
The target is the same in test [3]. The test is described as follows: cell-based or functional assay. The source holds these as a separate data set.
For test [4] the target is unchanged. The experiment in a line: assay not named; the printed µM is most likely a misprint of pM (compare Table 5 and paragraph 9).
Test [5] shares this target. The experiment in a line: thrombin amidolytic assay with S2238; column headed Affinity (nM).
Test [6] has the same target. The experiment in a line: comparison of Ki values.

B1: ultravariegin (peptide)
peptide: SDEAVRAIPKMYSTAPPGDFEEIPDDAIEE
modifications: not checked
Broadly, the Ki is the dissociation constant of the complex between target and ligand, obtained from inhibition or displacement. For the molecule B1, the Ki was 0.0044 nM in test [1], 1500 nM in test [4] and 0.001 nM in test [5]. In addition, the IC50, inhibition of thrombin amidolytic activity in test [2] worked out at 0.26 nM; in test [3] it was 0.4 nM. For the same molecule, in test [6], the fold more potent than variegin (Ki) is over 70 fold. The fold stronger affinity than avathrin and variegin in test [6] was over 200 fold.

Values taken from US20190002511A1.
